# Earlier results as cited in patent US20180221339A1, “COMPOSITIONS AND METHODS FOR TREATING AND DIAGNOSING OCULAR DISORDERS” (TRANSLATUM MEDICUS, INC., priority 2015, published 2018).
# Molecular target: T1, complement factor D (CFD) (Homo sapiens, UniProt P00746)
# T1 construct: host or cells: patients (endogenous protein, in vivo)
# Conditions: phase II study, 18 month period; most robust in patients with complement factor H and I polymorphisms
# T1 sequence (P00746 26-253): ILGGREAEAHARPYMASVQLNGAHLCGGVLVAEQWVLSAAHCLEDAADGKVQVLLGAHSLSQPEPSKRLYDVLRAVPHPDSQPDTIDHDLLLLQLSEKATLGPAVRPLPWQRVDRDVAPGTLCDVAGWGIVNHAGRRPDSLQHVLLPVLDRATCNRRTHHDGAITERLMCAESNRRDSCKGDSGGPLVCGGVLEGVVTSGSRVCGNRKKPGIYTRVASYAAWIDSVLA
substance,measurement,value
Lampilizumab: complement factor D (CFD) inhibitor; anti-factor D antibody (Genentech),growth (expansion) of geographic atrophy,"can slow the growth, i.e. expansion, of geographic atrophy"
